In the data set the target is Vps34 (vacuolar protein sorting 34), endogenous in MEF cell lysate (UniProt Q6PF93).

The source of these data is patent publication US20200155655.

Chain of Vps34 (vacuolar protein sorting 34), endogenous in MEF cell lysate (Q6PF93 whole entry): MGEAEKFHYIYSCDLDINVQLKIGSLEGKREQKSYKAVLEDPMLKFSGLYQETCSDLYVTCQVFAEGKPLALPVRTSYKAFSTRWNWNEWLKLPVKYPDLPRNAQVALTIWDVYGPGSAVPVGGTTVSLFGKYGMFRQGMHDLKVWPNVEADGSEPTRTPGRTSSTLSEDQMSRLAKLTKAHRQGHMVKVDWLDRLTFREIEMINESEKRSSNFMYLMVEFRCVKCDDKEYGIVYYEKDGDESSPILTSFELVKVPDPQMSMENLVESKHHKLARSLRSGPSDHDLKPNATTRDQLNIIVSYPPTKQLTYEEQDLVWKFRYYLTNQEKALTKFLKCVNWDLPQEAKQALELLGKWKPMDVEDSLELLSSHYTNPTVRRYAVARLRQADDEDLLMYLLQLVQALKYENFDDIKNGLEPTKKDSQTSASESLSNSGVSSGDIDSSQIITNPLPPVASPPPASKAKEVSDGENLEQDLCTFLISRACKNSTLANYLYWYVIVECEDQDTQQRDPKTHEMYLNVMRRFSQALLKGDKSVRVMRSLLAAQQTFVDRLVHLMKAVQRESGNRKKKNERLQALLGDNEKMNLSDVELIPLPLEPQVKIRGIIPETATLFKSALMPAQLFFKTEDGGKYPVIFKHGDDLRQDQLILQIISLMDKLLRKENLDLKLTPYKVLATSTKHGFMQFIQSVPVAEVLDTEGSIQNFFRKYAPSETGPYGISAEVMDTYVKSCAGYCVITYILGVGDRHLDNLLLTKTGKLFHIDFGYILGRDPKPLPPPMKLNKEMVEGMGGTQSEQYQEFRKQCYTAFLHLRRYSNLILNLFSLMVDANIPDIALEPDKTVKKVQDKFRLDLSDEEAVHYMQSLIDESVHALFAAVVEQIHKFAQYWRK
Chain of purified GST-LRS protein (chain, as listed by the source): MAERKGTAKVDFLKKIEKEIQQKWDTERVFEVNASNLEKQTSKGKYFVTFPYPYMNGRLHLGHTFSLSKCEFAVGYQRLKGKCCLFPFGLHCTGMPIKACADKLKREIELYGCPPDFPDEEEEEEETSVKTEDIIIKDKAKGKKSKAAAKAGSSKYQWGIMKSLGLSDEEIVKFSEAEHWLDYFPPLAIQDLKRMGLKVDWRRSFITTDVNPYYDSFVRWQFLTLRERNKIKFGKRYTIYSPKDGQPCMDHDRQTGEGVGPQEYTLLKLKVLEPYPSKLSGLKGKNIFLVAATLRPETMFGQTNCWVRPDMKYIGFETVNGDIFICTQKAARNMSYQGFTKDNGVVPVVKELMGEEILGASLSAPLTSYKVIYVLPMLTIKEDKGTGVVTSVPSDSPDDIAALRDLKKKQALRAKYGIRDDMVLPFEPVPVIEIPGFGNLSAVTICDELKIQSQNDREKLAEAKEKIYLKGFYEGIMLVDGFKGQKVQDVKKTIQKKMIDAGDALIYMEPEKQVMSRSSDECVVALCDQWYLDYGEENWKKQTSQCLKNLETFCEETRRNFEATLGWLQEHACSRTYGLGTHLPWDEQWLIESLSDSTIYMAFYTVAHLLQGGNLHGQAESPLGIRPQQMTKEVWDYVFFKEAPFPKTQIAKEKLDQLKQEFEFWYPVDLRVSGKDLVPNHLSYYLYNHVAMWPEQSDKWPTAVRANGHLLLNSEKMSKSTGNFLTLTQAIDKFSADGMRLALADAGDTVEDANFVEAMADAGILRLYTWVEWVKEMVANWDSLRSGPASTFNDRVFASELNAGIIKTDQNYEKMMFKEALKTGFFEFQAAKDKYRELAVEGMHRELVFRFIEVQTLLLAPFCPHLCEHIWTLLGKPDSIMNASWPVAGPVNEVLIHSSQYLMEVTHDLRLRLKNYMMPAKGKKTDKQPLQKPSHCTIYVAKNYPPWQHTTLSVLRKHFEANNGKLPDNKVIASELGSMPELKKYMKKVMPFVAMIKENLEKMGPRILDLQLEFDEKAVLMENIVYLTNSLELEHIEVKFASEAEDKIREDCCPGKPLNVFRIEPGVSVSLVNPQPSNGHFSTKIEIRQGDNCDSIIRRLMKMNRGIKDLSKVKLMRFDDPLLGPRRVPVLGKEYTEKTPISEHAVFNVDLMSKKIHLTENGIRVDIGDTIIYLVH
Chain of GST-LRS mutation (F50A/Y52A) (chain, as listed by the source F50A Y52A): as the sequence (chain, as listed by the source) above, with F50A, Y52A counted along it

As for purified GST-LRS protein, the “activity of Vps34 (in vitro Vps34 lipid kinase assay)” value is “the activity of Vps34 was increased by about 3 times compared to the GST control” and the “activity of Vps34 (in vitro Vps34 lipid kinase assay), with leucine” value is “the activity was further increased by leucine stimulation”.

In the case of GST-LRS mutation (F50A/Y52A), the “activity of Vps34 (in vitro Vps34 lipid kinase assay)” value is reported as “LRS mutation (F50A/Y52A) did not induce the activation of Vps34, regardless of the presence or absence of leucine stimulation”.
